Results taken from a protein production outcome set (Wang et al. 2014).

Assay: label from the status in PepcDB records
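Note: failed if final PepcDB status was selected cloned or expressed and not failed if soluble or beyond.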

Sequence	protein production
MASLEVSRSPRRSRRELEVRSPRQNKYSVLLPTYNERENLPLIVWLLVKSFSESGINYEIIIIDDGSPDGTRDVAEQLEKIYGSDRILLRPREKKLGLGTAYIHGMKHATGNYIIIMDADLSHHPKFIPEFIRKQKEGNFDIVSGTRYKGNGGVYGWDLKRKIISRGANFLTQILLRPGASDLTGSFRLYRKEVLEKLIEKCVSKGYVFQMEMIVRARQLNYTIGEVPISFVDRVYGESKLGGNEIVSFLKGLLTLFATT	failed
MEKCSVGGLELTEQTPALLGNMAMATSLMDIGDSFGHPACPLVSRSRNSPVEDDDDDDDVVFIESIQPPSISAPAIADQRNFIFASSKNEKPQGNYSVIPPSSRDLASQKGNISETIVIDDEEDVETNGGAEKKSSFFIEWGLPGTKNKTNDLDFSTSSLSRSKTKTGVRPFNPGRMNVAGDLFQNGEFATHHSPEMHLQRRLMSFFQ	not failed
MTLAARETAALDSVPEPPLADQLRAMDHLDALEAQSIYILREAFARLKKLALLWSLGKDSNVMIWLARKAFFGRVPFPALHVDTGKKFPEMYAFRDIYAKEWDLDLRVDPCPPIDSVDPTLPPAARSAARKTEGLKLALAKYGFDGLIAGIRRDEEATRAKERVFSPRGVEGGWDVRDQPAEFWDQFNASPPPGAHLRIHPILHWTEADIWAYTKREGIPIIPLYLSQNGKRYRSLGDQDITFPVNSNAASIDEILLELETTKVPERAGRALDHETEDAFERLRVAGYL	failed
MAVGLPLLLSSMAMPAQAAPAPEAPGNVAGVAKKNLDPGSYKDGRYMVVLAEKPAATYDGGTAGLAPTKPEEGKKLDVDSAEVKQYQQHLQQKQQEVAQQENVTIKRDFTTAVNGFSATLTADQAINLAKDPKVLMVAPDTQYAPDYSTTDFLKLSGPNGTWATQYGGQDNAGKGTVVGVIDTGYTPSNPFFAGEPVGPLVGNPQVGVPYRTADGKIAMLKADGDTFVGECQPGTDTGADYDGSACNSKVLSTHYFADAFLETVPPENRAPEEVISPVDVDSHGTHTASTAAGNANVDAVVDGRSFGTTSGIAPAAKLSVYKVCWEDTDPATGGCYGSASVDAIEQAILDGVDVLNYSISGSTTSTTDPVSLAFLSAASAGIFVATSAGNSGPTASTVNHGAPWLTTVAATSFSQELQGTVEFSDGSKFRGASIMNREVTGAGVVLSTNAASGEGNAALCAPGSLDPAKVAGKVVVCDRGVVDRTAKSAEVLRGGGVGMILVNLTDSSLDTDKHIIPTVHVNPPATQTIKDKVTANPAITVSLLNRDTTGLPAEAQPQIAGFSSRGPLLATDSDLLKPDVSAPGVAILAGVSPIGTGGDNFGFLSGTSMASPHVAGFGALILAKNPQWSPATVKSAMMTTAGPVKLANGAVNKDVFATGAGQVDPAKVLSPGLVYDATTEDYLKFIQGTGMDLGMEGLGTTQARDMNVPSFALGNLAGKIEVTRTLTALTPGTYRASVNVPGVNVKVTPSVLTFGAPGEKKTFKVQFENNNAALGKFAMGSLNWQGANKTVTSPIAVRPQSVIADKALAFTGTGPNGSGTINITSGTNLPVGVTIDGLSKADSSAVELVPGPFAGETNASNYVKKVTVGEGSALAKFSVISSNEAADFDMLVVTPSGQQLPAATASASETLSVPNPAAGDYYVYANLYASPNNQATKATVDAAVLGANQGNASVTPNPIRLANGKTGQISLNWKNLEPGSYIGRLTFAGTSEPSFVTVLVNPGGAVVVPDEEDPKKDKKDKKHRGKIRADEPTQSNNAG	failed
MLKSILKVAVISTIGLSTVACTVNDQRIARYGVGGAAIGALAGTAIAGSTPEAALTGAAVGAIAGSVTGAAVNQQRQQRQRQQRQIVAPHPAMCTYRNRKGQVYSAPCAQKVQTPQLCTYRDGRGVMYQAPCPQRVR	failed
MKQVVLNLKDGDLTVEEVPIPTIKGSGVLVRNHYSVISAGTESGVVDLADKSLIGKARARPDLAMKVINKAKQDGPISAFQQAMGRLEKREPLGYSSAGTVISVSEDIKDIKPGDRVACAGAGYANHADVVFVPRNLCAKVPENVDFKNACFTTVGSIAMQGVRNADVKIGENIVVIGLGLIGLITLQILKASGCRVFGVDLDESKVNLARELGADLSYSRNSPNLEERIKQFSRGIGADSTIITAATRSNDPVDFAGKITRERGKVVIVGLVGMDIPREEYYNKELEMRISRSYGPGRYDRNYEEYGQDYPAPYVRWTENRNMQAFLDLISMKKISMEPIITHEYEIEQAPEAYNIIKERKPYLGLVLKYDTDKRIEDKVILKSPGPVSAISESFSPVLGVIGAGIFATSILLPNLSKIKGVKLKGLSAASGLSCESVAKKYGFEYCTSDYHKILSDPEINCVSIVTRNSLHASLVIEALKNKKNVLVEKPLALNEEELNAIIEAKKENGGFIMVGFNRRYSELGVKLKDFFKNRSQSMVAYYRVNAESIPKDHWVYDESEGGSRIITECCHFIDFMQFIIGSSPVEVYARKIESQVKTPEDNENVSITIAFEDGSIGTLIYTTHGDSSVSKEHAEFFADGMVGAITDFKQLKLVKDGKCTQINKRLITEKGHKNELENFFKMVKQGPSKYSFEENVLTTVSTLKAAEHVMSGGPVKLI	failed
MSLETKTPNDAKNQVQTHERMKTSSEHVTPLDFNYPIHIVQAPQNHHVVGILTPRIQVSDNLKPYIDKFQDALINQIQTIFEKRGYQVLRFQDEKALNAQDKRKIFSVLDLKGWVGILEDLKMNLKDPNNPNLDTLVDQSSGSVWFNFYEPESNRVVHDFAVEVGTFQAMTYTYKHNNSGGLNSSNSIIHEYLEKNKEDAIHKILNRMYAVVMKKAVTELTKENIDKYREAIDRMKGFKSSMPQKKEGHHHHHH	not failed
MEQVIAQVIKRQQTEERPPDVLSQQTTKYEKRNSASLRKRKNSSKLYLKTDQNWMALREKLASNSIHDKGKYRQKRESNVTCFKSGVESGIQNSSVRSRETQVTFCDGTVPSQGLELANSKSTAEISSRNEIPRLTKVVALDCEFVGVGKLGKEHSLARVSIVNFKGEVLYDKYVLNDKEPVVDYRTSVSGIRPEHLRSSDAVSFEQAQRDVYSIIRNRILVGHAIHHDMHALLLSHPRKLIRDTSKWRGLRSHHLSRKTPSLRKLAQEILGIRIQDGEHDSVEDARATLMIYKRFAKEWEMELQTKKVKLARKKHR	failed
MDLLLKAALGAAVVVILAALAKTRNYYIAGLVPLFPTFALIAHYIVGKGRSLDDLKTTILFGMWSIIPYFVYLATLYVMVDRLRLEASLAVAAVAWLIAATILVSVWVRLHA	failed
MKTKAKISSRWLRFRALLIDIFLIYIPILYLFYFLLGSKEAFLNNHFITTLCTFLFGLIQAIFLTKKAQSPGLKAYDLYLIDIKTGKKLSFLRILLRYVIFIISFGLLFGLFVSFVRKDRLNLHDILTQSCIATKSIKKG	failed
MSEKDFVQVAKLGKTVGLKGYVKLHNLSDFSSQFKKDATFFIKNTKEMLKIKHYNANNSTVLFENYEDIEKAKELTNLILFQSIEKSRQTCKLKKDEFFYFDILECEVFEEDKRLGKVVDILETGASYLFEIQSDEKWVEKKYPKIFFIPYLDKFVKNIDIEKRQIFCTQDAFLILENSLEHHHHHH	not failed
MDLVEKVKELCLELEEENLAKAIERFITLTHGIEKTRGEAFAKASIYGFLEGILTTLKMKYSNEKIETLLNEVKTAREETEALLRKPRPPLLVDNDL	not failed
MAIKVGINGFGRIGRSFFRASWGREEIEIVAINDLTDAKHLAHLLKYDSVHGIFKGSVEAKDDSIVVDGKEIKVFAQKDPSQIPWGDLGVDVVIEATGVFRDRENASKHLQGGAKKVIITAPAKNPDITVVLGVNEEKYNPKEHNIISNASCTTNCLAPCVKVLNEAFGVEKGYMVTVHAYTNDQRLLDLPHKDFRRARAAAINIVPTTTGAAKAIGEVIPELKGKLDGTARRVPVPDGSLIDLTVVVNKAPSSVEEVNEKFREAAQKYRESGKVYLKEILQYCEDPIVSTDIVGNPHSAIFDAPLTQVIDNLVHIAAWYDNEWGYSCRLRDLVIYLAERGL	not failed
PFYYRLHFCDTMELFIETLTGTCFELRVSPFETVISVKAKIRRLEGIPICRQHLIWNNMELENDYCLNDYNISEGCTLKLVLAMRGGPINTRRVPTDDPLR	failed
MCQESVIVMQATQPLQTVSQAVPKEFLQADGGFNPNVAMFGIAILLMLANVFGYWQWGLPHWLCFSCSVLALHLSGTVIHDASHNAAHRNTIINAVLGHGSALMLGFAFPVFTRVHLQHHANVNDPENDPDHFVSTGGPLFLIAARFFYHEIFFFKRRLWRKYELLEWFLSRLVLFTIVFLGIHYGFIGFVMNYWFVPALIVGIALGLFFDYLPHRPFQERNRWKNARVYPSPILNWLIFGQNYHLIHHLWPSIPWYQYQNTYHITKPILDEKGCDQSLGLLEGKNFWSFLYDVFLGIRFHGHNNSQSSDKP	failed
MRNLLQKCFKWQWLVCLAVGCCFSSCKDDEESTSGYDPNKPIVLTDFYPPEGKLATQVILNGSNFGDSKENVKVFFNDKEASVISVKDDRMLVLAPKRASTIEDPECVVKVQVHEQIEEYKQTFDYYIQTTVTTLVGGSTSAQVNPTGTIPLSEAQFRANIDRCICVDQDKNVFFLVDNDGKFAAFMLNEEADKLISLKSDINALFNSPVLGYNSKDDIVYQFWANRDSHEVYYFDPKTDYAPTTAISSISWDDPNFPNIEGFGVWAAKCNFTMGPDGKMYSRMLGGNLVRIDVENARGENLTNGDLVGTKDGSAYGLVFDPQDENVFYFSNNDKHCIYKYDLRTKECACWAGQEGKSGYLDGPIGQAMFNKPGQMCVDSEGNIILTDTENHCIRKITMSTGYVSTLAGKPQNSGYVNGSAEDAQFKKPLGICIDNDDVMYIGDSENRAIRRLAVELEHHHHHH	not failed
MAQREIRLVDNEYPSPSMTHPPIPLSDIALTGIFEISKILTSPARLEITLANVVNLLQSFLQMRNGVVSLLADDGVPDITVGVGWNEGSDNRYRARLPQKAIDQIVATAVPLVADNVSAHPMFTAADAMALGATDEIRVSFIGVPIRIDSRVVGTLSIDRVRDGRSHFRMDADVRFLTMVANLIGQTVKLHRVVARDRERLMAESHRLQKELS	failed
MRVLVVGANGKVARYLLSELKNKGHEPVAMVRNEEQGPELRERGASDIVVANLEEDFSHAFASIDAVVFAAGSGPHTGADKTILIDLWGAIKTIQEAEKRGIKRFIMVSSVGTVDPDQGPMNMRHYLVAKRLADDELKRSSLDYTIVRPGPLSNEESTGKVTVSPHFSEITRSITRHDVAKVIAELVDQQHTIGKTFEVLNGDTPIAKVVEQL	not failed
MVEFLNKKKKSAQRPINLNGSFIFILILTFEFERRVKVDTADIFQRTMMLIGEDGLKKLSNVNIAVCGLGGVGSFAFEALVRCGIQNFVILDKDRVSVSNLNRQLIATVSNIGKSKVDIAYERALDINPFVNVVKVQKEINPENVEELLGNTKIDYIVDAIDDVSAKIALIKFAISRGIKIISSMGMGNRLNPSLLRISDIYSTKNCPLAKKIRSILRKEGIKKLKVVYSEEKPLKPDYKFLKEKTQKAHVPGSISFVPPVAGFLMAYEVVKDLLGW	failed
MLYTTFSAIIPSFLIILIGYTVGKIFSEETMGLASKVAIWVMVPTVTFTFINEYTPSFSTLGEFGLGVAIIFVIFYLYSRLFKEKKEVIHVTAVTANVGYLGYPILLSLWGEEALSLGVVYATLNIIMFSAVLPMFLGEKVNVKNLFKLPYVYALVAGFLTGKLGWSFRELPEWLVNAILMLKQSAIPYLLIYVGLSVSKLKLGRHLSKIGGIIVVNKLFLAPLIALVFALIYGLEGLTAKVFVLETAMPAAVNAVILTSALGGDSETVSYGVTLTTFFAIFTLPVWAVILESIFG	failed
MEGFSPPINTAQVDAKTKLDEKVDYSNLPCPVLYEELNREATMALKPELFEGFRLDYNKSLNQKFFLSHSILMGPTEVPNPTPSSEIIKIPTANYDFGAGFIDPKLYLIGRITTDGRLNARAKFDLTDNFSVKANALLTDEEDKSQGHLVIDYKGSDYRTQLQLGNNSVYAANYIQHVTPHLSLGGEAFWLGQQLMSGVGYAARYETDKTVASGQIASTGVAVMNYVHKVSEKLSFATDFIYNYLSRDVTASVGYDLITRQSRLRGKVDSNGVVAAYLEEQLPIGLRFLLSAEVDHVKKDYKFGFGVNAF	failed
